Experimental data reported in publication PMC8170832.

Molecular target: endogenous HSF1 (heat shock factor 1), mouse embryonic fibroblasts (mouse (endogenous in MEFs)) (UniProt P38532)
Assay: co-IP

UniProt P38532, sequence (P38532 whole entry): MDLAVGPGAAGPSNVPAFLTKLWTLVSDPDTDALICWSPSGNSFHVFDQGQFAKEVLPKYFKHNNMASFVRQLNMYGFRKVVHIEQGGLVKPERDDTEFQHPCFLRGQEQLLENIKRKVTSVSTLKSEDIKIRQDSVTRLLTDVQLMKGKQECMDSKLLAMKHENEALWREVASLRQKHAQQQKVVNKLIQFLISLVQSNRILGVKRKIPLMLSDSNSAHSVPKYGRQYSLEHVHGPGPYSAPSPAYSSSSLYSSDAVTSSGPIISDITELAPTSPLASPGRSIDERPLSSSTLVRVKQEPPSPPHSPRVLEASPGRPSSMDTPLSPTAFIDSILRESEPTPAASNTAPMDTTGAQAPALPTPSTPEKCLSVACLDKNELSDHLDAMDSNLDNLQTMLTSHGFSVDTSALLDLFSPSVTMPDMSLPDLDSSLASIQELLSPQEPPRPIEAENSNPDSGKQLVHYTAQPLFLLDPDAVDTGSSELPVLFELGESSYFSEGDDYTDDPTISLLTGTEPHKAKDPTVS

“endogenous AMPK (AMP-activated protein kinase), mouse embryonic fibroblasts (from UniProt Q5EG47 1-559; Q9R078 1-270; Q91WG5 1-566) (complex)” showed a percent of total cellular AMPKα depleted by IP of HSF1 of 66%.

“endogenous phospho-AMPKα (Thr172), mouse embryonic fibroblasts (from UniProt Q5EG47 1-559; Q9R078 1-270; Q91WG5 1-566) (complex)” was tested, and the percent of phospho-AMPKα depleted by IP of HSF1 was 25%.
